According to the nanobody polyreactivity screen of Harvey et al. (2022):

Assay: yeast display, Sf9 membrane polyspecificity reagent, FACS + sequencing; frameworks hold sequencing errors
In short: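 Sorting gates, low and high (top ~1%), were placed on anti-HA fluorescence to track expression and on streptavidin fluorescence to track reagent binding. A clone's polyreactivity label is taken from the gate it came out of. The reagent was 10% biotinylated, detergent-solubilized Sf9 membrane, applied for 1 hour at 4 °C to galactose-induced yeast display cells.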

| Sequence | polyreactivity (PSR sort gate) |
| --- | --- |
| QVQLVESGGGLVQAGGSLRLSCAASGSIFSAYAMGWYRQAPGKEREFVAGITSSGGRTYYADSVKGRFTISRDNAKNTVYLQMNSLKPEDTAVYYCAARFYKKDRRAYGYWGQGTQVTVSS | high polyreactivity |
| QVQIVESGGGLVQAGGSLRLSCAASGRIFGAYGMGWYRQAPGKERELVAAISNGGRTSYADSVKGRFTISRDNAKNTVYLQMNSLKPEDTAVYYCAAVYWQWYGAYDYWGQGTQVTVSS | high polyreactivity |
| QVQLVESGGGLVQAGGSLRLSCAASGSTIYINGMGWYRQAAGKERELVAVISKRGGTTYYADSVKGRFTISRDNAKNTVYLQMNSLKPEDTAVYYCADRPYYWGQGTQVTVSS | high polyreactivity |
| QVQLVESGGGLVQAGGSLRLSCAASGSIFGYYVMGWYRQAPGKERELVAAISRSGGSTYYADSVKGRFTISRDNAKNTVYLQMNSLIPEATAVYYCAARGTAERDYWGQGNQVTVSS | high polyreactivity |
| QVQLVESGGGLVQAGGSLRLSCAASGITFAGYAMGWYRQAPGKERELVAAITRGGGITYYADSVKGRFTISRDNAKNTVYLQMNSLKPEDTPVDYCNAVVTSAAGYFPLLYDYWGQGTQVTVSS | high polyreactivity |
| QVQLVESGGGLVQAGGILRLSCAASGRTFGIYVMGWYRQAPGKERELVAAIRSGGTTNYADTVKGRFTISRDNAKNTVYLKMNSLKPEDTAVYYCAASSRRSWTYDYWGQGTQVTVSS | high polyreactivity |
| QVQLVESGGGLVQAGGSLRLSCAASGSTFVDYALGWARQAPGKERELVAAISSSGGSTYYADSVKGRFTISRDTAKNTVYLQMNSLKPEDTAVYYCAARYDRSSKRNYWGQGTQVTVSS | low polyreactivity |
| QVQLVESGGGLVQAGGSLRLSCAASGYTFGSYAMGWYRPAPGKERELVAAITPGGSTYYADSVKGRFTISRDNAKNTVYLQMNSLKPEDTAVYYCNRATRYWKAYYWFKTMDYWGQGTQVTVSS | high polyreactivity |
| QVQLVESGGGLVQAGGILRLSCAASGSIFRVYAMGWYRQAPGKVRELVASISRRGGSTYYADSVKGRFTISRDNAKNTVYLQMNSLKPEDTAVYYCAATTYSGFDYCGQGTQVTVSS | high polyreactivity |
| QVQLVESGGGLVQAGGSLRLSCAASGRTFYNNAMGWYRQAPGKERELVATINNRGGTTYYADSVKGRFTISRDNAKNTVYLQMNSLKPEDSAVYYCAKSAQRYSYRYYYWGQGTQVTVSS | high polyreactivity |
| QVQLVESGGGLVQAGASLRLSCAASGSTFKYYTMGWYRQAPGKERALVAAISFSGARTYYADSVKGRFTISRDNAKNTVYLQMNSLKPEDTAVYYCAKASSYSRRYEYWGQGTQVTVSS | high polyreactivity |
| QVQIVESGGGLVQAGGSLRLSCAASGFTFGHYAMGWYRQAPGKERELVAAISYSGVRTYYADSVKGRFTISRDNAKNTVYLQMNSLKPEDTAVYYCNKYPAHYQTRRYDYWGHGTQVTVSS | high polyreactivity |
| QVQLVESGGGLVQAGGSLRLSCASSGRTFFQYAMGWYRQAPGKERELVAAIRWSDSTYYADSVKGRFTISRDNAKNTVYLQMNSLKPEDTAVYYCAAPRVSQYSTKKYDYWGQGTQVTVSS | low polyreactivity |
| QVQLVEAGGGLVQSGGSLRLSCAASGSIFNIYAMGWSRQAAGKDRELVAVISSRGGRSYYADSVKGRFTISRDNAKNTVYLQMTSLKPEDTAVYYCAAGYLRQGYRGYDYWGQGTQVTVSS | high polyreactivity |
| QVQLVESGGGLVQAGGSLRLSCAASGRIFQYNVMGWYRQAPGKERELVAAISSGGNTYYADSVKGRFTISRDNAKNTVNLPMNSLKPEDTAVYYCAADHYVPWPNYDYDYWGQGTQVTVSS | low polyreactivity |
| QVQLVESGGGLVQAGGSLSLICAASGYTLKYYAMGWYRQAPGKERELVAVISRGGSTYYADSVKGRFTISRDNAKNTVYLQMNSLNPEDTAVYYCAKRPTQGYYPYGYWGQGTQVTVSS | high polyreactivity |

| Sequence | polyreactivity (PSR sort gate) |
| --- | --- |
| QVQLVESGGGLVQAGGSLRLSCAASGITFGYYAMGLYRQAPGKERELVAAISWSGGRTYYADSVKGRLTISRDNAKNTVYLQMNSLKPEDTAVYYCATRYPVRRGSGPSYDYWGQGTQVTVSS | high polyreactivity |
| QVQLVESGGGLVQAGGSLRLSCAASRFIFSVYTMGSYIQAPGKERELVAAISSGPSTTYADSVKGRFTISRDNAKNTVYLQMNSLKPEDTAVYYCARRDGTTQALFGYDYWGLGTQVTVSS | low polyreactivity |
| QVQLVESGGGLVQAGGSLRLSCAASGSIYYYYAMGWYRQAPGKERELVAAIRRRGGTTYYADSVKGRFTISRDNAKNTVSLQMISLKPEDTAVYYCAARSKSAYWGQGTQVTVSS | high polyreactivity |
| QVQLVESGGGLVQAGGSLRLSCAASGITSWYYAMGWYRQAPGKERELVAAITSDGRTNYADSVKGRFTISRDNAKNTVYLQMNSLKPEDTAVYYCAAARRVGVSHYRYGYWGQGTQVTVSS | high polyreactivity |
| QVQLVESGGGLVQAGGSLRLSCAASGFTYFQYAMGWYRQAPGKERELVAAITSGVSTNYADSVKGRFTISRDNAKNTVYLQMNSLKPEDTAVYYCAADPRYLQSWRGEFAGEYWGQGTQVTVSS | low polyreactivity |
| QVQLVESGGGLVQAGGSLRLSCAASGRIFSWYAMGWYRQAPGKERELVARITSGVSTNYADSVKGRFTISRDNEKNTVYLQMNSLKPEDTAVYDCAADDYSCLYYSSTYRYEYWGQGTQVTVSS | low polyreactivity |
| QVQLVESGGGLVQAGGSLRLSCAASGFIFSYYAMGWYRQAPGKERELVAAISSGGSTYYADSVKGRFTISRDNAKNSVYLQMNSLKPEDTAVYYCAAAIWYIILYFVRRTEHGYWGQGTQVTVSS | low polyreactivity |
| QVQLVESGGGLVQAGGSLRLSCAASGFIFPENDMGWYRQAPGKERELVATISGDTSTNYADSVKGRFTISRDNAKHTVYLQMNSLKPEDTAVYYCNRKLKGRKSHKLDYDYWGQGTQVTVSS | low polyreactivity |
| QVQLVESGGGLVQAGGSLRLSCAASGLIFSRYAMGWYRQAPGKERELVAAISTRGGSTYYADSVKGRFTISRDTAKNTVYLQMNSLKPEDTAVYYCNADIYGTFRVGQGYDYWGQGTQVTVSS | high polyreactivity |
| QVQLVESGGGLVQAGGSLRLSCAASGSIFYSNAMGWYRQAAGKERELVAAISVSGVSTYYADSVKGRFTISRDTAKNTVYLQMNSLKPEDTAVYYCAADTGYRYDDYYWWGGEYDYWGQGTQVTVSS | low polyreactivity |
| QVQLVESGGGLVQAGGSLRLSCAASGRTFGSYAMGWYRQAPGKEREFVAGISYGGGRTYYADSVKGRFTISRDNAKNTVYLQMNSLKPEDTAVYYCAADGVYRYNYPYLYTYDYWGQGTQVTVSS | low polyreactivity |
| QVQLVESGGGLVQAGGTLRLSCAPYGIILYRIGMGWYRQAPGKERELVAAISWSTGSTYYADSEKGRFTISRDNAKNTVYLQMNSLKPEDTAVYYCATDYGGYSFGMYYWGQGTQVTVSS | low polyreactivity |
| QVQLVESGGGLVQAGGSLRLSCAASGSTFFANAMGWFRQAPGKAREFVAVITWGGSTYYADSVKGRFTISRDNAKNSVYLQMNSLKPEDTAVYYCNADYQPPGILYHWWRYYRGDYWGQGTQVTVSS | low polyreactivity |
| QVQIVESGGGLVQAGGSLRLSCAASGRTFNAYAMGWYRPAPGKERELVAAISGNGGSTYYADSVKGRFTISRDNAKNTVYLQMNSLKPEDTAVYYCYKVQRSLLGYNSWGQGTEVTVSS | high polyreactivity |
| QVQLVESGACLVKAGGSLRLSCAASGSSFYGYAMGWYRQAPGKERELVASITVSVGSTNADSVKGRFTISRDNAKNTVYLQMISLKPEDTAVYYCAAETVHSREQREGDYWGQGTQVSVSS | low polyreactivity |
